This passage reports Ka results from doi:10.1101/2025.07.11.664400 (bioRxiv, 2025).

In data set [1] the target is T1, RecBΔNucCD (Escherichia coli, UniProt P08394;P07648;P04993 1-929;1-1122;1-608). Description: fluorescence competition.
Data set [2] deals with T2, RecBCD (Escherichia coli, UniProt P08394;P07648;P04993 1-1180;1-1122;1-608). Description: fluorescence competition.
Data set [3] addresses T1, RecBΔNucCD. Description: ITC. On the technique in general: In ITC the heat of successive injections is recorded.
For data set [4], the target named is T1, RecBΔNucCD. Description: ITC. The source holds these as a separate data set.
Data set [5] concerns the target T1, RecBΔNucCD. Description: fluorescence titration.
The target in data set [6] is T2, RecBCD. Description: fluorescence titration.
Data set [7] has as its target T1, RecBΔNucCD. The data set can be described thus: fluorescence titration. The source holds these as a separate data set.

B1: Blunt ended DNA (dsDNA)
DNA 1: CCATGGCTCCTGAGCTAGCTGCAGTAGCCTAAAGGATGAAACTAGGATCTTATGCTCCAG
DNA 2: CTGGAGCATAAGATCCTAGTTTCATCCTTTAGGCTACTGCAGCTAGCTCAGGAGCCATGG
With B1, the Ka in data set [1] is 4.7e+07 M⁻¹; in data set [2], 1.4e+07 M⁻¹; in data set [3] it was above 1e+09 M⁻¹; in data set [4], 1.2e+07 M⁻¹.

B2: Reference DNA (dsDNA)
DNA 1: CCATGGCTCCTGAGCTAGCTGCAGTAGCCTAAAGGATGAAACTAGGATCTTATGCTCCAGTTTT
DNA 2: CTGGAGCATAAGATCCTAGTTTCATCCTTTAGGCTACTGCAGCTAGCTCAGGAGCCATGGTTTT
As to B2, the Ka was 1.6e+08 M⁻¹ in data set [5], 3.2e+07 M⁻¹ in data set [6] and above 2e+09 M⁻¹ in data set [7].
